Experimental data: patent publication US20040235118A1

Assays:
[1] = target: Crotalus durissus terrificus venom; experiment: ELISA, C.d.t. venom-coated plate, dilution 1:5
[2] = target: Crotalus durissus terrificus venom; experiment: ELISA, C.d.t. venom-coated plate, dilution 1:25
[3] = target: Crotalus durissus terrificus venom; experiment: ELISA, C.d.t. venom-coated plate, dilution 1:500
[4] = target: Crotalus durissus terrificus venom; experiment: ELISA, C.d.t. venom-coated plate, dilution 1:125
[5] = target: Crotalus durissus terrificus venom; experiment: ELISA, C.d.t. venom-coated plate, dilution 1:625
[6] = target: Crotalus durissus terrificus venom; experiment: ELISA, C.d.t. venom-coated plate, dilution 1:3125
[7] = target: Crotalus durissus terrificus venom; experiment: ELISA, C.d.t. venom-coated plate, dilution 1:2,500
[8] = target: Crotalus durissus terrificus venom; experiment: ELISA, C.d.t. venom-coated plate, dilution 1:12,500
[9] = target: Crotalus durissus terrificus venom; experiment: ELISA, C.d.t. venom-coated plate, dilution 1:62,500
[10] = target: Crotalus durissus terrificus venom; experiment: ELISA, C.d.t. venom-coated plate, dilution 1:312,500
[11] = target: Crotalus durissus terrificus venom; experiment: ELISA, C.d.t. venom-coated plate (5 µg/ml), undiluted
[12] = target: Crotalus durissus terrificus venom; experiment: ELISA, C.d.t. venom-coated plate (5 µg/ml), dilution 1:5
[13] = target: Crotalus durissus terrificus venom; experiment: ELISA, C.d.t. venom-coated plate (5 µg/ml), dilution 1:25
[14] = target: Crotalus durissus terrificus venom; experiment: ELISA, C.d.t. venom-coated plate (5 µg/ml), dilution 1:125
[15] = target: Crotalus durissus terrificus venom; experiment: ELISA, C.d.t. venom-coated plate (5 µg/ml), dilution 1:625
[16] = target: Crotalus durissus terrificus venom; experiment: ELISA, C.d.t. venom-coated plate (5 µg/ml), dilution 1:3125

## preimmune IgY (PEG preparation from eggs of unimmunized hens or purchased eggs) (antibody)
[1]
  absorbance (ELISA): < 0 OD
[2]
  absorbance (ELISA): 0.016 OD
[3]
  absorbance (412 nm filter): 0.005 OD
[4]
  absorbance (ELISA): < 0 OD
[5]
  absorbance (ELISA): < 0 OD
[6]
  absorbance (ELISA): < 0 OD
[7]
  absorbance (412 nm filter): 0.004 OD
[8]
  absorbance (412 nm filter): 0.001 OD
[9]
  absorbance (412 nm filter): 0.001 OD
[10]
  absorbance (412 nm filter): 0.01 OD
[11]
  absorbance (ELISA): 0.003 OD
[12]
  absorbance (ELISA): < 0 OD
[13]
  absorbance (ELISA): 0 OD
[14]
  absorbance (ELISA): 0.003 OD
[15]
  absorbance (ELISA): 0 OD
[16]
  absorbance (ELISA): 0.002 OD
